The results in this text go back to paper PMC12559329.

The data set has as its target MutSβ (MSH2-MSH3) (human, UniProt P43246;P20585 1-934;1-1137). Nature of the data set: EMSA; 2 mM ATP, 5 mM Mg2+, pUC19 competitor; 25 mM Tris-acetate pH 7.5, 1 mM DTT, 2 mM ATP, 5 mM MgCl2, 0.1 mg/ml albumin, 0.5 nM DNA, 3 ng/µl pUC19 competitor, 37 °C 30 min; native 6% PAGE. As to conditions: protein: recombinant, tags: N-terminal FLAG on MSH2, N-terminal 6xHis on MSH3, copies: 1;1, label: 3'-32P on bottom strand (TdT, dCTP), 5' overhang 1 nt (G) on bottom.

B1: (CAG)4 loop DNA (dsDNA)
DNA 1: ACGTCAGAGTCGCTGCGCTCAGTCGTTCAACTGCTCAGCAGCAGCAGTAACTATCGTCTTGAATCCAACCCGGTAAGATACG
DNA 2: GCGTATCTTACCGGGTTGGATTCAAGACGATAGTTAAGCAGTTGAACGACTGAGCGCAGCGACTCTGACGT
modifications: biotin on both strands (position in bold, not recoverable)
Take B1: under “12-nt extrahelical (CAG)4 loop in top strand”, the binding result is reported as “binds”.

B2: (CAG)4 loop DNA with nick 3 nt downstream of loop (dsDNA)
DNA 1: ACGTCAGAGTCGCTGCGCTCAGTCGTTCAACTGCTCAGCAGCAGCAGTAA
DNA 2: TAACTATCGTCTTGAATCCAACCCGGTAAGATACG
DNA 3: B1 DNA 2
modifications: biotin on bottom strand; others unclear (bold lost)
B2: under “12-nt loop and nick in top strand, as printed both left and right oligos contain the TAA at the junction (3 nt redundant)”, the binding result is “binds”.
